# Experimental data from the supplement of paper PMC9170038.
# Test system: MS2 coat protein
# Experiment: apparent KD of MS2 coat protein, switch OFF state (with FMN for OFF switches, without FMN for ON switches); designed switch direction (-1 OFF switch, 1 ON switch): -1; higher = weaker reporter binding
# Details: FMN input: 0 or 200 uM; Eterna round: R93 (includes R88 designs)
# Summary of the method: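 Designed RNA switches, transcribed on-chip from Illumina sequencing clusters, were titrated with SNAP-549-labelled MS2 coat protein from 0.7 or 1.5 nM to 3 µM in twofold steps. The solution was 100 mM Tris-HCl pH 7.5, 80 mM KCl, 4 mM MgCl2, with constant ligand or without it. Apparent KD is the median over each design's normalised cluster binding-curve fits.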
row,Sequence,apparent KD of MS2 coat protein
1,AAAAAUCGAGGAUAUACAUGAGGAUCACCCAUGUUGGAAAACGAUUACACAAAAGAAAGUAGAAGGCGAUAAAA [Ex 3 May 21],24.7 nM
2,AAGAUGUAAGGAUAUGCUGCUCGUCACAAAAGUGAUGAGUAGCAGAAGGUACAUGAGGAUCACCCAUGUAAAGA [JL eternac mod 10],44 nM
3,UAUAACCAAGGAUAUACUAACGAAACUAAUGCAUAUAUAUAACAUGAGGAUCACCCAUGUAGAAGGUGGAGAAU [JR_Exc002_Sub012],50.2 nM
4,AACUGUACAGGAUAUACAUGAGGAUCACCCAUGUGAGAAUUAAGUGGAGAACCACAAAGUAGAAGGGUACAGGA [Mat - Exclusion 3 - JL mod - D17],218 nM
5,AAAAAACAUGAGGAUCACCCAUGUAAGGAUAUGUAAAAUAAAAGAAAAAUAAAGAAAAGCAGAAGGUAUAUGAA [JL wbt mod 13],40.7 nM
6,AAAUACUAAGGAUAUACAUGAGGAUCACCCAUGUACAAACCCGUGGAACGGAUCGUUAGUAGAAGGUGGACAAA [Zaanrion],15.4 nM
7,AAAAGACAUGAGGAUCACCCAUGUGAGGAUAUGCAAAACCCAUAUAAAAAGGGAAAAAGCAGAAGGUACAAAAA [wbt round 1 mod 13],40.5 nM
8,AGAACGUCAGGAUAUGCAACAACAAGUAAAUAGAGAAGAAGGCAGAAGGGACAUGAGGAUCACCCAUGUAAGAA [e4],29.9 nM
9,AAAAAACAUGAGGAUCACCCAUGUGAGGAUAUGCUAUGGAAAAUAAAAAUAAAACAUAGCAGAAGGCACAAUGU [Denovo 5],85.2 nM
10,ACAAGACAUGAGGAUCACCCAUGUGAGGAUAUGCUCGGAUGACAUGACGUUAGCUAACGCAGAAGGCACAAUAA [Exclusion 1],36.7 nM
11,AAGAAGUCAGGAUAUGCUGCUCGUCACUUGCGUGAUGAGUAGCAGAAGGGACAUGAGGAUCACCCAUGUAAAGA [Opal 14],65.6 nM
12,AGGGAGUCAGGAUAUCGGAAAACAAAACAACGAAAAAAAGACGAGAAGGGACAUGAGGAUCACCCAUGUAAGAA [milkweed 17],21.6 nM
13,AACAAACAUGAGGAUCACCCAUGUCAGGAUAUCCGAAAUAAAGAAACAAUAAUAAUAAGGAGAAGGGACUAAAU [Ex1 sub 2],34.1 nM
14,GAAAAACAUGAGGAUCACCCAUGUAAGGAUAUGCGAAAAUAAAAUAAAAUAAAAUAAAGCAGAAGGUACAAAAG [Mat - Exclusion 1 - Eli mod - D2],58.4 nM
15,AAAAAACAUGAGGAUCACCCAUGUAAGGAUAUGCUAGGAAAAAGAAAAAUAAAAACUAGCAGAAGGUACAUAAA [JL wbt mod 10],30.6 nM
16,AACAGUACAGGAUAUACAUGAGGAUCACCCAUGUCAGAAUUAAGCAGCGUAACACAAAGUAGAAGGGUAAUGGA [Ruby 18],41.1 nM
17,AAAAAGUCAGGAUAUGCACAAAAAAAAAUAAAAAAAAAAGUGCAGAAGGGACAUGAGGAUCACCCAUGUAAGAU [Mat - Exclusion 4 - Mayanna - D118],77.2 nM
18,AGAAAGUCAGGAUAUACGAAAGUGCGAAAGCACACAAGGGAACAUGAGGAUCACCCAUGUAGAAGGGACAAGAA [Diamond 78],91.7 nM
19,AAAAAGGUAGGAUAUGCUAAAUAACAUGAAGAAUAAAUAAAACAUGAGGAUCACCCAUGUAGAAGGACCAAAAA [Ex 2 Tesla 1],20 nM
20,AAAAAACAUGAGGAUCACCCAUGUAAGGAUAUGCAAGCAAGAAGAAAGAACAGAAAAAGCAGAAGGUACAAAAA [Amethyst 72],35.9 nM
21,AAAAAACAUGAGGAUCACCCAUGUGAGGAUAUCUGUAUUCAAUCCUCGGAUUGAAUACAGAGAAGGCACAUGGG [Ex1: 609],14.2 nM
22,AAAAAGGCAGGAUAUACGUACAUGUCAAAAGACGUGAAGGGACAUGAGGAUCACCCAUGUAGAAGGGUCAAGAA [JL Stem Breaker 19],61.9 nM
23,AACAGGACAGGAUAUACAUGAGGAUCACCCAUGUGAGAAUUAAGUGGCGUACCACAAAGUAGAAGGGUCCUGGA [Mat - Exclusion 3 - JL mod - D40],216 nM

row,Sequence,apparent KD of MS2 coat protein
1,AAGAACCGAGGAUAUACAUGAGGAUCACCCAUGUAAAAGAAAGAGGGAAAAGAGAAAAGUAGAAGGCGGAAGAA [Berenice I],57.4 nM
2,ACUGAUACAGGAUAUACAUGAGUGAAAAAAGUAAAUCCACUACAUGAGGAUCACCCAUGUAGAAGGGUAUCAGA [Ex2 Design 179: Random 5B],42.7 nM
3,AAAGGGCGAGGAUAUACAUGAGGAUCACCCAUGUAAAAAACAUAAUAAAAGAACUUAUGUAGAAGGCGUCCAAA [Meechl Ex3 2 R2 v2],321 nM
4,AGCUAGUCAGGAUAUACAAACAUGUCAAAAGACGUGAAAAGACAUGAGGAUCACCCAUGUAGAAGGGACUAGCA [Mat - Exclusion 2 - JL mod - D14],90.5 nM
5,AACUGACAUGAGGAUCACCCAUGUCAGGAUAUGCUUCAUAAAAAAAAAAAAAAAUGAUGCAGAAGGGACAUGAA [Design 25 :P Sub-opt 1],14.1 nM
6,AACAGUACAGGAUAUACAUGAGGAUCACCCAUGUGAGAAUUAAGUGGCGUACCACAAAGUAGAAGGGUACUGGA [JL Maslow Revisted mod 16],173 nM
7,AAAAAUGGAGGAUAUACGUACAUGUCAAAAGACGUGAAGGGACAUGAGGAUCACCCAUGUAGAAGGCUAAAAAA [JL Stem Breaker 7],29.5 nM
8,AACAAGUGAGGAUAUCGGAAAUGUAAAUAAGUUUCACAAAACGAGAAGGCACAUGAGGAUCACCCAUGUAAAUA [JR_Exc004_Sub013],25.6 nM
9,GGGCCACAUGAGGAUCACCCAUGUAAGGAUAUGCUAGGGAUGGAAACCAUUACGCAAAGCAGAAGGUACUAAAG [Janelle Amethyst 18 Mod 10 - Jieux - Exclusion 1],28.2 nM
10,AAGAGUAGAGGAUAUACAUGAAAAGAGUCGAAAGACUCAAAACAUGAGGAUCACCCAUGUAGAAGGCUACUCAA [Hyphema Seclusion Mod 62% 3],81.4 nM
11,AAAAAAAAAGGAUAUAAAAAAAAAAGUCAGGAUAUAGGAAACUAGAAGGGACAUGAGGAUCACCCAUGUAAAAA [Meechl Ex4 R2 m0],40.8 nM
12,AAAUGAUGAGGAUAUACAUGAGGAUCACCCAUGUGUAAAAAUAAAUACACAAAAGAAAGUAGAAGGCAUCAAAG [Mat - Exclusion 3 - Mayanna mod - D119],88.6 nM
13,AAAAAGUCAGGAUAUACGAAAAAAAAAAAAAAAAAAAAAAAGUAGAAGGGACAUGAGGAUCACCCAUGUAAAAA [Exclusion 4],27.1 nM
14,AAAAAGACAGGAUAUACGUGAAAAAUAAAAAUGUAAAAAAAACAUGAGGAUCACCCAUGUAGAAGGGUCAAAAA [Ecx-I 62% 3],61.8 nM
15,AACAGAACAGGAUAUACAUGAGGAUCACCCAUGUCACAACAAAGCAGCGCAACACAAAGUAGAAGGGUUAUGGA [Ruby 14],40.9 nM
16,AACAAGGCAGGAUAUACAUGAGGAUCACCCAUGUGAGAAUUAAGUGGCGUAACACAAAGUAGAAGGGCCAUGGA [Ruby 5],49.9 nM
17,GAGAGCCGAGGAUAUACAUGAGGAUCACCCAUGUAAAAAAAAAAAAAAAAAAAAUCAUGUAGAAGGCGGCUUUC [hsl_exclusion3],28.9 nM
18,AAACGUUGAGGAUAUACAGAAGGGUAUAAAUCAAAAAAAACACAUGAGGAUCACCCAUGUAGAAGGCAACGAAA,50.4 nM
19,AAAAAGGGAGGAUAUACAUGAGUAGAUCGUGUAAAAAAAAUACAUGAGGAUCACCCAUGUAGAAGGCCCAAAAA [Ecxl-III],31.5 nM
20,GUGUACAGAGGAUAUACUAAAGCAUGGAAACAUGCAAGAUCACAUGAGGAUCACCCAUGUAGAAGGCUGUACAC [Ex2: 741],529 nM
21,CCGAGGCGAGGAUAUAUGAAGGACACAACAUUUAGGGUAAGACAUGAGGAUCACCCAUGUAGAAGGCGCGACGC [Ex2_Neo],38.7 nM
22,CAGGUAUGAGGAUAUACAUAGAUACAGACACAUGUUCAAGUACAUGAGGAUCACCCAUGUAGAAGGCAUAUAUG [Mat - Same state - Mayanna Mod - D106],35.1 nM
